The target of the assay is HLA-A*02:01 (Homo sapiens, UniProt P04439, D140Y/D185E/D98H/E176V/E277Q/G131W/G231S/I119V/I121R/I166T/I218V/L300P/L318F/N151K/N90K/P208A/P217A/Q86G/Q94H/R138H/R169H/T345S). The assay is described as follows: MHC binding assay (UV-ligand exchange, ELISA of stabilized MHC complexes). Particulars: MHC class I binding score; binding to HLA-A*02:01 ranged by peptide exchange yield (UV-ligand exchange, ELISA). An outline of the steps:
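Binding scored as exchange yield, detected via β2m of stabilized complexes in an HRP/TMB ELISA read at 450 nm after streptavidin capture of 100-fold diluted monomers for 1 h at 37 °C. Complexes came from UV irradiation cleaving a photolabile peptide, exchanged for the candidate.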
On the technique in general: ELISA stands for enzyme-linked immunosorbent assay.
As to “526 (RLAEVGQYEQV; listed as Homo sapiens) [compound 526]”, the Peptide exchange result is listed as “″++″ (≥20% = ++)”.
With “527 (FLLEPGNLEV; listed as Homo sapiens) [compound 527]” the entry was “″++++″ (≥75% = ++++)”; with “528 (SVAEGRALMSV; listed as Homo sapiens) [compound 528]”, “″+++″ (≥50% = +++)”.
As for “529 (LLADELITV; listed as Homo sapiens) [compound 529]”, the entry is “″+++″ (≥50% = +++)”; as for “530 (VMYADIGGMDI; listed as Homo sapiens) [compound 530]”, “″+++″ (≥50% = +++)”.
Consider “531 (YTLPIASSIRL; listed as Homo sapiens) [compound 531]”, for which the Peptide exchange result was “″+++″ (≥50% = +++)”.
As for “537 (TLAPGEVLRSV; listed as Homo sapiens) [compound 537]”, the entry is “″+++″ (≥50% = +++)”.
Regarding “538 (LLLAHIIAL; listed as Homo sapiens) [compound 538]”, the Peptide exchange entry was “″++″ (≥20% = ++)”.
Turning to “539 (ALFDAQAQV; listed as Homo sapiens) [compound 539]”, the Peptide exchange result was “″+++″ (≥50% = +++)”.
As for “541 (SMLEPVPEL; listed as Homo sapiens) [compound 541]”, the entry is “″+++″ (≥50% = +++)”; as for “542 (RVWDISTVSSV; listed as Homo sapiens) [compound 542]”, “″+++″ (≥50% = +++)”; as for “543 (GLLPTPITQQASL; listed as Homo sapiens) [compound 543]”, “″+++″ (≥50% = +++)”.
As for “544 (LLWDVPAPSL; listed as Homo sapiens) [compound 544]”, the entry is “″+++″ (≥50% = +++)”.
In the case of “545 (LLADLLHNV; listed as Homo sapiens) [compound 545]”, the Peptide exchange entry is “″+++″ (≥50% = +++)”.
For the substance “546 (VMIAGKVAVV; listed as Homo sapiens) [compound 546]”, the Peptide exchange result is “″+++″ (≥50% = +++)”.
Consider “547 (TLDITPHTV; listed as Homo sapiens) [compound 547]”, for which the Peptide exchange result is recorded as “″+++″ (≥50% = +++)”.
As for “548 (ALWENPESGEL; listed as Homo sapiens) [compound 548]”, the Peptide exchange entry is given as “″++″ (≥20% = ++)”.
Consider “549 (AMLENASDIKL; listed as Homo sapiens) [compound 549]”, for which the Peptide exchange entry is “″+++″ (≥50% = +++)”.
In the case of “550 (FLYDEIEAEVNL; listed as Homo sapiens) [compound 550]”, the Peptide exchange result is given as “″+++″ (≥50% = +++)”.
As for “551 (KLYESLLPFA; listed as Homo sapiens) [compound 551]”, the entry is “″+++″ (≥50% = +++)”; as for “552 (GLLDLPFRVGV; listed as Homo sapiens) [compound 552]”, “″++++″ (≥75% = ++++)”.
As for “553 (SLLNQDLHWSL; listed as Homo sapiens) [compound 553]”, the entry is “″++++″ (≥75% = ++++)”; as for “554 (LLMPSSEDLLL; listed as Homo sapiens) [compound 554]”, “″+++″ (≥50% = +++)”.
On to “555 (YVLEGLKSV; listed as Homo sapiens) [compound 555]”, for which the Peptide exchange result is given as “″+++″ (≥50% = +++)”.
As for “556 (FLTDLEDLTL; listed as Homo sapiens) [compound 556]”, the entry is “″+++″ (≥50% = +++)”; as for “557 (KLYDDMIRL; listed as Homo sapiens) [compound 557]”, “″+++″ (≥50% = +++)”; as for “558 (GLLENIPRV; listed as Homo sapiens) [compound 558]”, “″+++″ (≥50% = +++)”.
With “559 (VTVPPGPSL; listed as Homo sapiens) [compound 559]” the entry was “″++″ (≥20% = ++)”.
Take “560 (ALWDIETGQQTTT; listed as Homo sapiens) [compound 560]”: the Peptide exchange result is “″+++″ (≥50% = +++)”.
As for “561 (YLQLTQSEL; listed as Homo sapiens) [compound 561]”, the entry is “″+++″ (≥50% = +++)”; as for “562 (YLEELPEKLKL; listed as Homo sapiens) [compound 562]”, “″+++″ (≥50% = +++)”.
As for “563 (WLLPYNGVTV; listed as Homo sapiens) [compound 563]”, the Peptide exchange result is reported as “″+++″ (≥50% = +++)”.
With “564 (TVTNAVVTV; listed as Homo sapiens) [compound 564]” the entry was “″+++″ (≥50% = +++)”.
With “565 (ALQETPTSV; listed as Homo sapiens) [compound 565]” the entry was “″++″ (≥20% = ++)”.
For the substance “566 (VIADGGIQNV; listed as Homo sapiens) [compound 566]”, the Peptide exchange entry is listed as “″++″ (≥20% = ++)”.
With “567 (SLLPLDDIVRV; listed as Homo sapiens) [compound 567]” the entry was “″+++″ (≥50% = +++)”; with “568 (TLYDIAHTPGV; listed as Homo sapiens) [compound 568]”, “″++++″ (≥75% = ++++)”; with “569 (KLVDRTWTL; listed as Homo sapiens) [compound 569]”, “″+++″ (≥50% = +++)”.
With “570 (ALANQIPTV; listed as Homo sapiens) [compound 570]” the entry was “″++″ (≥20% = ++)”; with “571 (LLLTTIPQI; listed as Homo sapiens) [compound 571]”, “″+++″ (≥50% = +++)”.
As for “572 (ALADLIEKELSV; listed as Homo sapiens) [compound 572]”, the entry is “″+++″ (≥50% = +++)”; as for “573 (ILVANAIVGV; listed as Homo sapiens) [compound 573]”, “″+++″ (≥50% = +++)”; as for “574 (YLLQEPPRTV; listed as Homo sapiens) [compound 574]”, “″++″ (≥20% = ++)”.
For the substance “575 (YLISQVEGHQV; listed as Homo sapiens) [compound 575]”, the Peptide exchange entry was “″+++″ (≥50% = +++)”.
As for “576 (ILLNNSGQIKL; listed as Homo sapiens) [compound 576]”, the entry is “″++++″ (≥75% = ++++)”; as for “577 (VMFEDGVLMRL; listed as Homo sapiens) [compound 577]”, “″+++″ (≥50% = +++)”; as for “578 (FLDPGGPMMKL; listed as Homo sapiens) [compound 578]”, “″+++″ (≥50% = +++)”.
As for “579 (NLMEMVAQL; listed as Homo sapiens) [compound 579]”, the entry is “″++″ (≥20% = ++)”; as for “580 (LLMENAERV; listed as Homo sapiens) [compound 580]”, “″++″ (≥20% = ++)”; as for “582 (TLCDVILMV; listed as Homo sapiens) [compound 582]”, “″+++″ (≥50% = +++)”.
Regarding “583 (ILANDGVLLAA; listed as Homo sapiens) [compound 583]”, the Peptide exchange entry is “″+++″ (≥50% = +++)”.
With “584 (ALAEVAAMENV; listed as Homo sapiens) [compound 584]” the entry was “″+++″ (≥50% = +++)”.

Values taken from patent US10472401B2, “Peptides and combination of peptides for use in immunotherapy against ovarian cancer and other cancers” (immatics biotechnologies GmbH, priority 2015, dated 2019).
